Consider two molecules from publication PMC8901441, “The interplay between BAX and BAK tunes apoptotic pore growth to control mitochondrial-DNA-mediated inflammation” (Molecular Cell, 2022).

The target of series [1] is BAK-488 (full-length mouse BAK L192K, F193S, Y196D, C154S, labelled with Atto 488) (mouse) (UniProt O08734). In words: single-molecule TIRF brightness (stoichiometry) analysis; 1, 5 or 10 nM labelled protein incubated 1 h with EPC:CL 8:2 LUVs (150 mM NaCl, 10 mM HEPES/KOH, pH 7.4), activated by heat (43°C), or 1 nM BAK-488 by 2 nM cBid; proteoliposomes diluted with LUVs and fused into supported lipid bilayers on glass; corrected for partial labelling.

Series [2] deals with the molecule itself. Described as above.

For the molecule “BAK-488 (full-length mouse BAK L192K, F193S, Y196D, C154S, labelled with Atto 488) (from UniProt O08734 1-209) (natural protein)”, in series [1], the stoichiometry N (usually the number of molecules, sites or subunits per partner or assembly) came out at 2.

B1: BAX-488 (single-cysteine, full-length human BAX S4C, C62S, C126S, labelled with Atto 488) (natural protein, UniProt Q07812 1-192, looked up)
chain: MDGCGEQPRGGGPTSSEQIMKTGALLLQGFIQDRAGRMGGEAPELALDPVPQDASTKKLSESLKRIGDELDSNMELQRMIAAVDTDSPREVFFRVAADMFSDGNFNWGRVVALFYFASKLVLKALSTKVPELIRTIMGWTLDFLRERLLGWIQDQGGWDGLLSYFGTPTWQTVTIFVAGVLTASLTIWKKMG
modifications: Atto 488 covalently attached to the single cysteine
notes: BAX, human, single-cysteine mutant (S4C, C62S, C126S); Plasmid pTYB1_hBAX-S4C,C62S, C126S from a previous study (doi 10.1038/ncomms9042); Labelling efficiency 84%; also called hBAX-S4C,C62S, C126S
With B1, the “stoichiometry N” value in series [2] is not above 10.
